Values of other authors in patent US20250052762A1, “PEPTIDASE CLEAVABLE SUBSTRATES AND METHODS OF IDENTIFICATION AND USE THEREOF” (Alaunus Biosciences, Inc., priority 2020, published 2025).
Entries after “also recorded” stand apart in the source; their conditions may differ. Square brackets hold non-standard residues; d marks the D form. Ends that are not written are not given here. * marks the point of attachment. MeOSuc = COC(=O)CCC(=O)*; 2Abz = Nc1ccccc1C(=O)O; dnp = not defined here; SBn = c1ccc(CS*)cc1

Columns and labels:
neutrophil elastase = molecular target: T1, neutrophil elastase (Homo sapiens, UniProt P08246)
T1 sequence (P08246 30-267): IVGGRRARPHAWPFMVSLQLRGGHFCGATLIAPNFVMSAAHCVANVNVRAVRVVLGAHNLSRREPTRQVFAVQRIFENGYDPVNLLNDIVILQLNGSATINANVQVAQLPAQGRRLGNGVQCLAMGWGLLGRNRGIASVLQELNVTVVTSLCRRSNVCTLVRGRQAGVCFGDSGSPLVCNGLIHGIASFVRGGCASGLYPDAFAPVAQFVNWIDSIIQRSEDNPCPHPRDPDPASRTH

MMP14 = MMP14 (Homo sapiens, UniProt P50281); details: for Michaelis constant (KM): magnitude in words
granzyme B = granzyme B (Homo sapiens, UniProt P10144); details: for measured catalytic efficiency: candidate natural substrates, fluorescence assay (Boivin et al., 2012)
Chain of granzyme B (P10144 21-247): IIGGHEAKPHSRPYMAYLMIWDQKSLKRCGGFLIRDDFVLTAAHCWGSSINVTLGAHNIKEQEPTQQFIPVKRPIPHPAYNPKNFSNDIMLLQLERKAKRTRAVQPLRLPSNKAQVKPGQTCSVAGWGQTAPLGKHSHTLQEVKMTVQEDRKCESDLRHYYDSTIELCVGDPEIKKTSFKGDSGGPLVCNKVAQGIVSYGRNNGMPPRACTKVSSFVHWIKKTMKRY

[1] = magnitude in words, top-most active substrates in BRENDA database
[2] = top-most active substrates in BRENDA database

methoxysuccinyl-Ala-Ala-Pro-Val-thiobenzyl ester (MeOSuc-AAPV-SBn; SMILES COC(=O)CCC(=O)N[C@@H](C)C(=O)N[C@@H](C)C(=O)N1CCC[C@H]1C(=O)N[C@H](C(=O)SCc1ccccc1)C(C)C) [fluorescent tool substrate for neutrophil elastase]
estimated catalytic efficiency (neutrophil elastase; estimated from KM and kcat, fluorescence assay (Stein et al., 1987)): 9565 mM⁻¹ s⁻¹ | Michaelis constant (KM) (neutrophil elastase; [1]): micromolar | turnover number (kcat) (neutrophil elastase; [2]): up to 22 s^−1

collagen I alpha-1: collagen I alpha-1 chain, natural substrate of MMP14
Michaelis constant (KM) (MMP14; BRENDA database): piocomolar; also recorded: picomolar

collagen I alpha-2: collagen I alpha-2 chain, natural substrate of MMP14
Michaelis constant (KM) (MMP14; BRENDA database): piocomolar; also recorded: picomolar

2-aminobenzoyl-IEPDSSMESK-dnp ([2Abz]IEPDSSMESK-dnp; reading uncertain; also: printed as 2-aminobenzoyl-IEPDSSMESK-dnp) [fluorescent tool substrate for granzyme B]
estimated catalytic efficiency (granzyme B; estimated from KM and kcat, fluorescence assay (Sun et al., 2001)): 758 mM⁻¹ s⁻¹ | Michaelis constant (KM) (granzyme B; [1]): micromolar | turnover number (kcat) (granzyme B; [2]): 1 to 5 s⁻¹

methoxycoumarin-4-acetyl-Lys-Pro-Leu-Gly-Leu-Lys (2,4-dinitrophenyl)-Ala-Arg-NH2 ({methoxycoumarin‑4‑acetyl}-KPLGLK(2,4‑dinitrophenyl)AR-NH2; not fully specified; printed as methoxycoumarin-4-acetyl-Lys-Pro-Leu-Gly-Leu-Lys (2,4-dinitrophenyl)-Ala-Arg-NH₂)
catalytic efficiency (MMP14; measured by fluorescence assay, BRENDA database): 550 to 2429 mM⁻¹ s⁻¹ | turnover number (MMP14; reported in BRENDA database): 0.33 to 6.8 s⁻¹

B1: biglycan: candidate natural substrate of granzyme B (protein, UniProt P21810 38-368, looked up)
Biglycan: DEEASGADTSGVLDPDSVTPTYSAMCPFGCHCHLRVVQCSDLGLKSVPKEISPDTTLLDLQNNDISELRKDDFKGLQHLYALVLVNNKISKIHEKAFSPLRKLQKLYISKNHLVEIPPNLPSSLVELRIHDNRIRKVPKGVFSGLRNMNCIEMGGNPLENSGFEPGAFDGLKLNYLRISEAKLTGIPKDLPETLNELHLDHNKIQAIELEDLLRYSKLYRLGLGHNQIRMIENGSLSFLPTLRELHLDNNKLARVPSGLPDLKLLQVVYLHSNNITKVGVNDFCPMGFGVKRAYYNGISLFNNPVPYWEVQPATFRCVTDRLAIQFGNYKK
measured catalytic efficiency (granzyme B): 1.7 mM⁻¹ s⁻¹

B2: beta-glycan: candidate natural substrate of granzyme B (protein, UniProt Q03167 21-851, looked up)
Transforming growth factor …: GPEPGALCELSPVSASHPVQALMESFTVLSGCASRGTTGLPQEVHVLNLRTAGQGPGQLQREVTLHLNPISSVHIHHKSVVFLLNSPHPLVWHLKTERLATGVSRLFLVSEGSVVQFSSANFSLTAETEERNFPHGNEHLLNWARKEYGAVTSFTELKIARNIYIKVGEDQVFPPKCNIGKNFLSLNYLAEYLQPKAAEGCVMSSQPQNEEVHIIELITPNSNPYSAFQVDITIDIRPSQEDLEVVKNLILILKCKKSVNWVIKSFDVKGSLKIIAPNSIGFGKESERSMTMTKSIRDDIPSTQGNLVKWALDNGYSPITSYTMAPVANRFHLRLENNAEEMGDEEVHTIPPELRILLDPGALPALQNPPIRGGEGQNGGLPFPFPDISRRVWNEEGEDGLPRPKDPVIPSIQLFPGLREPEEVQGSVDIALSVKCDNEKMIVAVEKDSFQASGYSGMDVTLLDPTCKAKMNGTHFVLESPLNGCGTRPRWSALDGVVYYNSIVIQVPALGDSSGWPDGYEDLESGDNGFPGDMDEGDASLFTRPEIVVFNCSLQQVRNPSSFQEQPHGNITFNMELYNTDLFLVPSQGVFSVPENGHVYVEVSVTKAEQELGFAIQTCFISPYSNPDRMSHYTIIENICPKDESVKFYSPKRVHFPIPQADMDKKRFSFVFKPVFNTSLLFLQCELTLCTKMEKHPQKLPKCVPPDEACTSLDASIIWAMMQNKKTFTKPLAVIHHEAESKEKGPSMKEPNPISPPIFHGLDTLTVMGIAFAAFVIGALLTGALWYIYSHTGETAGRQQVPTSPPASENSSAAHSIGSTQSTPCSSSSTA
measured catalytic efficiency (granzyme B): 5.9 mM⁻¹ s⁻¹

B3: decorin: candidate natural substrate of granzyme B (protein, UniProt P07585 31-359, looked up)
Decorin: DEASGIGPEVPDDRDFEPSLGPVCPFRCQCHLRVVQCSDLGLDKVPKDLPPDTTLLDLQNNKITEIKDGDFKNLKNLHALILVNNKISKVSPGAFTPLVKLERLYLSKNQLKELPEKMPKTLQELRAHENEITKVRKVTFNGLNQMIVIELGTNPLKSSGIENGAFQGMKKLSYIRIADTNITSIPQGLPPSLTELHLDGNKISRVDAASLKGLNNLAKLGLSFNSISAVDNGSLANTPHLRELHLDNNKLTRVPGGLAEHKYIQVVYLHNNNISVVGSSDFCPPGHNTKKASYSGVSLFSNPVQYWEIQPSTFRCVYVRSAIQLGNYK
measured catalytic efficiency (granzyme B): 1 mM⁻¹ s⁻¹
